The assay addresses HIV-1 BaL envelope protein spike (Env) on virions (HIV-1 BaL strain). Put plainly: cell-based or functional assay.

Substance “MVN-DAVEI8 (microvirin-linker-MPER fusion)” yielded an EC50 of virolysis (% p24 release) of 780 nM.
